From article PMC10130748
Substitutions are numbered along the chain they refer to. Names may count otherwise. Blank lines part the entries; values can stand above or below the binder they belong to.

Key:
[1] = biological target: T1, soluble recombinant integrin αvβ3, P06756;P05106; assay: ELISA-type binding assay (OD450); conditions: chain shown with the change; CD62P 50 µg/ml; 1 mM Mn2+; parent: est. 0.55; read off a plot
T1 chain 1: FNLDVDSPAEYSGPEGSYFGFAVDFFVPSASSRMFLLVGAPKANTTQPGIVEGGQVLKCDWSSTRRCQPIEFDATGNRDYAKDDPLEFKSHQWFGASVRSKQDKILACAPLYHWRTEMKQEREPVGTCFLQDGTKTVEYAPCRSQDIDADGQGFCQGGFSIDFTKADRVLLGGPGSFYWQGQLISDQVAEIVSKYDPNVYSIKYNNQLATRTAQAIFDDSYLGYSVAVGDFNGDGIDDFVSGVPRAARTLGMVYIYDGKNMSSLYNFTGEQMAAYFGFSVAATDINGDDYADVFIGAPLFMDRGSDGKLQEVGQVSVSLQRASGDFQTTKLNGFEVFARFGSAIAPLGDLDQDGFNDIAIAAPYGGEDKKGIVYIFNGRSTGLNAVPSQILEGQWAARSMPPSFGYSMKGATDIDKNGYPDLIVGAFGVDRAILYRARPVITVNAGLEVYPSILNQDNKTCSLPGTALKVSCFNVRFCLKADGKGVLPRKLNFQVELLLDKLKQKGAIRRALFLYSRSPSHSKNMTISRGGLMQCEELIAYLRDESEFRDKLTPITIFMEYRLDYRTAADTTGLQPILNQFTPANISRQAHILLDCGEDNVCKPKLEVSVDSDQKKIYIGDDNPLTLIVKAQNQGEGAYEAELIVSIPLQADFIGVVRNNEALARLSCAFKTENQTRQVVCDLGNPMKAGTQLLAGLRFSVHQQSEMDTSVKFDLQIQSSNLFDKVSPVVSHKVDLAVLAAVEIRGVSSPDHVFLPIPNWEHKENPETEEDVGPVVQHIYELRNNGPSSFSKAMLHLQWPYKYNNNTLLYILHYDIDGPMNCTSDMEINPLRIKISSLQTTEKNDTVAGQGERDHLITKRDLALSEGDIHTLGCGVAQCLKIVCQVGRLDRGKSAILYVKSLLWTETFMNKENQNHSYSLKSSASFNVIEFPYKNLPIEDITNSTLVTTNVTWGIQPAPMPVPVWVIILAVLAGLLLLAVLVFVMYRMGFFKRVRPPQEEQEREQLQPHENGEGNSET
T1 chain 2: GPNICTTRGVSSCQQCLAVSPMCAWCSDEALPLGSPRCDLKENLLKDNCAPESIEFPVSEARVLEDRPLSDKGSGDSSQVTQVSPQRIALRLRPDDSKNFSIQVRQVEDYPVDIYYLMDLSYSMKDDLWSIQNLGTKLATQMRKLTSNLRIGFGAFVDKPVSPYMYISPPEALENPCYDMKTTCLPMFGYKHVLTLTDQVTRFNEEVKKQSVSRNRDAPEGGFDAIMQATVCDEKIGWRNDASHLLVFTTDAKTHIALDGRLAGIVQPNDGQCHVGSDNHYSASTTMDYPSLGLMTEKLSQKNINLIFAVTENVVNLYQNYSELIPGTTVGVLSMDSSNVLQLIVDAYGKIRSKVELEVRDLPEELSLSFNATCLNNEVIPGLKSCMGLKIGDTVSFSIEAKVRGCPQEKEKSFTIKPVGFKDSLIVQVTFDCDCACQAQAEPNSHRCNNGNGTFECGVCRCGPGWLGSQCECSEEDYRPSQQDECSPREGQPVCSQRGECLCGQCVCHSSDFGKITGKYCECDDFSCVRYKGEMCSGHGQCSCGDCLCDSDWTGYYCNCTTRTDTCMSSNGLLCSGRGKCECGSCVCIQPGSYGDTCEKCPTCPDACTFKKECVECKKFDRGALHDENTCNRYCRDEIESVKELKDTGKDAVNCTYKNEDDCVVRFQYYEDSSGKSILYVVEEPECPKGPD

[2] = biological target: soluble recombinant integrin αIIbβ3, P08514;P05106; assay: ELISA-type binding assay (OD450); conditions: chain shown with the change; CD62P 50 µg/ml; 1 mM Mn2+; parent: est. 0.54; read off a plot

response [1]: 1.2 OD450 | response [2]: 1.3 OD450
B1: CD62P (P-selectin) lectin domain (residues 1–117), wild type R54E; K55E (protein)
chain: WTYHYSTKAYSWNISRKYCQNRYTDLVAIQNKNEIDYLNKVLPYYSSYYWIGIEENNKTWTWVGTKKALTNEAENWADNEPNNKRNNEDCVEIYIKSPSAPGKWNDEHCLKKKHALC

response [1]: 0.35 OD450 | response [2]: 0.3 OD450
B2: CD62P (P-selectin) lectin domain (residues 1–117), wild type K66E; K67E (protein)
chain: B1 chain with E54R, E55K, K66E, K67E

response [1]: 0.24 OD450 | response [2]: 0.19 OD450
B3: CD62P (P-selectin) lectin domain (residues 1–117), wild type K84E; R85E (protein)
chain: B1 chain with E54R, E55K, K84E, R85E

response [1]: 0.8 OD450 | response [2]: 0.76 OD450
B4: CD62P (P-selectin) lectin domain (residues 1–117), wild type E88D (protein)
chain: B1 chain with E54R, E55K, E88D

response [1]: 0.14 OD450 | response [2]: 0.12 OD450
B5: CD62P (P-selectin) lectin domain (residues 1–117), wild type R16E; K17E (protein)
chain: B1 chain with R16E, K17E, E54R, E55K

response [1]: 0.31 OD450 | response [2]: 0.27 OD450
B6: CD62P (P-selectin) lectin domain (residues 1–117), wild type K58E (protein)
chain: B1 chain with E54R, E55K, K58E
